Source: patent US20180021429A1, “ANTICANCER AGENTS OR ANTIMETASTATIC AGENTS USING FSTL1 AND COMBINATION DRUG THEREOF” (PHARMA FOODS INTERNATIONAL CO., LTD., priority 2015, published 2018)
Entries after “also recorded” stand apart in the source; their conditions may differ.

T1: FSTL1 (Homo sapiens, UniProt Q12841)
T1 sequence (Q12841 21-308): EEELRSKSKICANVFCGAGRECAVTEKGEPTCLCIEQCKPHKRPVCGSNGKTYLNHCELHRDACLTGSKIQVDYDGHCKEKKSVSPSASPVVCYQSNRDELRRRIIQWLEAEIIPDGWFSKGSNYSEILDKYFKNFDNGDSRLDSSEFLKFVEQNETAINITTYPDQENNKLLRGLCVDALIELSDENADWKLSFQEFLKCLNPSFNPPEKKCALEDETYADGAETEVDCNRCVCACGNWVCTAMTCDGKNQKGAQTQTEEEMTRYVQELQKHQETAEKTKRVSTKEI

B1: #5-3: chicken-mouse chimeric anti-FSTL1 antibody clone; variable regions SEQ ID NO: 767 (light), 769 (heavy) (antibody, V domains shown)
VH: AVTLDESGGGLQTPGGALSLVCKGSGFSFSSFNMFWVRQAPGKGLEWVAGIGKDGVPKYGAAVDGRATISKDNGQSTMRLQLNNLRAEDTGTYFCAKAAGGCSYDWCGIYAGDIDTWGHGTEVIVSS
VL: ASTQPSSVSANPGETVKITCSGGSGYYYGWYQQKSPGSVPVTVIYNNNNRPSDIPSRFSGSKSGSTGTLTITGVRAEDEAVYYCGGYDNSGTGIFGAGTTLTVL
modifications: mouse constant regions
B2: #5-8: chicken-mouse chimeric anti-FSTL1 antibody clone; variable regions SEQ ID NO: 771 (light), 773 (heavy) (antibody, V domains shown)
VH: AVTLDESGGGLQTPGGGLSLVCKGSGFTFSSFNMFWVRQAPGKGLEWVAGIGKDGVPKYGTAVDGRATISKDNGQSTMRLQLNNLRAEDTGTYFCAKAAGGCSYDWCGIYTGDIDTWGHGTEVIVSS
VL: ASTQPSSVSANPGEAVKITCSGGSGSYYGWYQQKSPGSAPVTVIYNNNQRPSDIPSRFSGSKSGSTATLTITGVQAEDEAVYFCGGYDSSTGHGGIFGAGTTLTVL
modifications: mouse constant regions
B3: #8-7: chicken-mouse chimeric anti-FSTL1 antibody clone; variable regions SEQ ID NO: 799 (light), 801 (heavy) (antibody, V domains shown)
VH: AVTLDESGGGLQTPGGGLSLVCKGSGFTFSSFNMFWVRQAPGKGLEWVAGIGKDGVPKYGAAVDGRATISKDNGQSTLRLQLNNLRAEDTGTYFCAKAAGGCSYDWCGIYAGDIDTWGHGTEVIVSS
VL: ASTQPSSVSANPGEAVKITCSGGSGSYYGWYQQKSPGSAPVTVIYNNNQRPSDIPSRFSGSKSGSTATLTITGVQAEDEAVYFCGGYDSSTGHGGIFGAGTTLTVL
modifications: mouse constant regions
B4: #8-4: chicken-mouse chimeric anti-FSTL1 antibody clone; variable regions SEQ ID NO: 795 (light), 797 (heavy) (antibody, V domains shown)
VH: AVTLDESGGGLQTPGGGLSLVCKGSGFTLSSFNMFWVRQAPGKGLEWVAGVGKDGGTAYGAAVDGRATISRDSGQSTVRLQLNNLRAEDTGTYFCAKAAGGCSYSWCGAYVGDLDAWGHGTEVIVSS
VL: ASSQPSSVSANPGETVKITCSGGSGYYYGWYQQKSPGSAPVTVIYNNDNKPSDIPSRFSGSKSGSTGTLTITGVQVEDEAVYFCGGYDNSGTGIFGAGTTLTVL
modifications: mouse constant regions
B5: #6-55: chicken-mouse chimeric anti-FSTL1 antibody clone; variable regions SEQ ID NO: 783 (light), 785 (heavy) (antibody, V domains shown)
VH: AVTLDESGGGLQTPGGALSLVCKGSGFTFTSVTMQWVRQAPGKGLEWVASVCSGSSTYYAPAVKGRATISRDNGQSTVRLQLSNLRPEDTGTYYCAKIAGRARWSCTSAAYNIDAWGHGTEVIVSS
VL: ASTQPSSVSAIPGETVKITCSGGGNNYGWYQQRSPGSAPVTVIYYNDNRPSNIPSRFSGSTSGSTSTLTITGVQADDEAIYYCGSWDSNTDSGIFGAGTTLTVL
modifications: mouse constant regions
B6: #5-2: chicken-mouse chimeric anti-FSTL1 antibody clone; variable regions SEQ ID NO: 763 (light), 765 (heavy) (antibody, V domains shown)
VH: AVTLDESGGGLQTPGGGLSLVCKGSGFTFSSFNMFWVRQAPGKGLEWVAGVGKDGGTGYGAAVDGRATISKDNGQSTLRLQLNNLRAEDTGTYYCAKAAGGCSYGWCGSYVGDIDAWGHGTEVIVSS
VL: ASTQPSSVSANPGEAVKITCSGGSGSYYGWYQQKSPGSAPVTVIYNNNQRPSDIPSRFSGSKSGSTATLTITGVQAEDEAVYFCGGYDSSTGHGGIFGAGTTLTVL
modifications: mouse constant regions

Target: T1, FSTL1
Experiment: Inhibition of activation of tumor cells by FSTL1, RANKL- and CCR2-positive cells in human pancreatic cancer cell line Panc1 (Examples 5, 7, 9, 10, 11)
Type: cell-based
Set-up: purchased R&D Systems, Inc. 1694-FN-050
Conditions: for inhibitory activity against the expansion of RANKL-positive cells and CCR2-positive cells: FSTL1 50 ng/mL
Protocol: It is known that tumor cells activated by stimulation with FSTL1 highly express molecule groups promoting bone metastasis and increase metastatic invasive capacity (Cancer Research 73: 6185, 2013). Thus, 2×10^7 cells/well of a human pancreatic cancer cell line Panc1 were suspended in 1 mL/well of D-MEM medium (GIBCO/Thermo Fisher Scientific Inc. Cat. No. C11885500BT) containing 10% fetal bovine serum, supplemented with 50 ng/mL (final concentration) of FSTL1 (R&D Systems, Inc.) and 10 μg/mL of the anti-FSTL1 antibody (#5-2, #5-8, #5-10, #5-43, #6-55, or #7-34) or its isotype mouse IgG (anti-DNP antibody) as a control antibody “Control”, and cultured under stimulation (6-well plate). 3 days thereafter, the number of cells was counted while the cells were stained with a PE-labeled anti-RANKL antibody (eBioscience Cat. No. 12-6619) and a PE-labeled anti-CCR2 antibody (R&D Systems, Inc. Cat. No. FAB151P) in order to examine the expression of markers indicating bone metastatic properties, and the contents of RANKL-positive cells and CCR2-positive cells were analyzed by flow cytometry using FACScan (Becton, Dickinson and Company) to calculate the numbers of cells per culture. […] Therefore, in Examples below, judgment was made with the number of cells as an index.
(§1) In the same way as in Example 5, a human pancreatic cancer cell line Panc1 was supplemented with 50 ng/mL (final concentration) of FSTL1 (R&D Systems, Inc.) and 10 μg/mL of the anti-FSTL1 antibody (the same clones as in Example 6) or a control antibody and cultured under stimulation. 3 days thereafter, the number of cells was counted while the cells were stained with a PE-labeled anti-RANKL antibody and a PE-labeled anti-CCR2 antibody, and the contents of RANKL-positive cells and CCR2-positive cells were analyzed by flow cytometry using FACScan (Becton, Dickinson and Company) to calculate the numbers of cells per culture (FIG. 67B).
as §1, with “20” for “50”, “FSTL1” for “FSTL1 (R&D Systems, Inc.)”, “(#5-2, #5-8, or #6-55)” for “(the same clones as in Example 6)”, “68B).” for “67B).”
as §1, with “FSTL1” for “FSTL1 (R&D Systems, Inc.)”, “(#5-2, #5-3, #6-55, #7-34, #8-1, #8-4, #8-7, or #8-8)” for “(the same clones as in Example 6)”, “culture.” for “culture (FIG. 67B).”
In the same way as in Example 5, a human pancreatic cancer cell line Panc1 was supplemented with 50 ng/mL (final concentration) of FSTL1 and 10 μg/mL of the anti-FSTL1 antibody (#6-55) or a control antibody and cultured under stimulation. 3 days thereafter, the number of cells was counted while the cells were stained with a PE-labeled anti-RANKL antibody and a PE-labeled anti-CCR2 antibody, and the contents of RANKL-positive cells and CCR2-positive cells were analyzed by flow cytometry using FACScan (Becton, Dickinson and Company) to calculate the numbers of cells per culture.

[1] = Example 7, antibody 10 μg/mL, 3 days
[2] = Example 10, antibody 10 μg/mL, 3 days, including newly obtained clones

Row | Molecule | inhibitory activity against the expansion of RANKL-positive cells and CCR2-positive cells [1] | inhibitory activity against the expansion of RANKL-positive cells and CCR2-positive cells [2] | other results
1 | B1 | higher inhibitory activity |  | 
2 | B2 | higher inhibitory activity |  | 
3 | B3 |  | higher inhibitory activity; also recorded: high inhibitory activity | 
4 | B4 |  | higher inhibitory activity; also recorded: high inhibitory activity | 
5 | B5 |  | higher inhibitory activity; also recorded: high inhibitory activity | inhibition of cell induction of RANKL-positive cells and CCR2-positive cells (dose dependence test) (Example 11, figure legend): strongly inhibited the cell induction of both RANKL-positive cells and CCR2-positive cells; inhibitory activity against the expansion of RANKL-positive cells and CCR2-positive cells (Example 11, all tested doses 5, 10 and 20 μg/mL, dose dependence not confirmed): ~100%
6 | B6 |  | higher inhibitory activity; also recorded: high inhibitory activity | 
